# According to the supplement of paper PMC10567573:
# B1: KCNA3 (parent)
# chain: GERVVINISGLRFETQLKTLCQFP
# Variants of: B1
# Assay: protein stability index of a GFP-peptide fusion (GPS, HEK-293T) (PSI 1-6); higher = more stable
# Conditions: c terminus: a fixed tail appended
# 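Also: lentivirally expressed fusions sorted by FACS into six bins by GFP to DsRed ratio, PSI derived from sequencing read proportions per bin multiplied by bin number.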
row,Variant,protein stability index
1,GERVVINISTLRFETQLKTLCQFP [G10T],2.62
2,GERVVINISVLRFETQLKTLCQFP [G10V],1
3,GERVVINISDLRFETQLKTLCQFP [G10D],1.47
4,GERVVINISNLRFETQLKTLCQFP [G10N],2.35
5,GERVVINISILRFETQLKTLCQFP [G10I],1.81
6,GERVVINISFLRFETQLKTLCQFP [G10F],2.81
7,GERVVINISRLRFETQLKTLCQFP [G10R],1.26
8,GERVVINISPLRFETQLKTLCQFP [G10P],4.02
9,GERVVINISLLRFETQLKTLCQFP [G10L],3.08
10,GERVVINISELRFETQLKTLCQFP [G10E],2.8
11,GERHVINISGLRFETQLKTLCQFP [V4H],2.16
12,GEREVINISGLRFETQLKTLCQFP [V4E],1.92
13,GERNVINISGLRFETQLKTLCQFP [V4N],1.64
14,GERRVINISGLRFETQLKTLCQFP [V4R],2.28
15,GERAVINISGLRFETQLKTLCQFP [V4A],1.75
16,GERGVINISGLRFETQLKTLCQFP [V4G],1.66
17,GERYVINISGLRFETQLKTLCQFP [V4Y],2.16
18,GERQVINISGLRFETQLKTLCQFP [V4Q],2.34
19,GERPVINISGLRFETQLKTLCQFP [V4P],2.13
20,GERCVINISGLRFETQLKTLCQFP [V4C],3.21
21,GERKVINISGLRFETQLKTLCQFP [V4K],2.23
22,GERSVINISGLRFETQLKTLCQFP [V4S],2.59
23,GERTVINISGLRFETQLKTLCQFP [V4T],2.27
24,GERWVINISGLRFETQLKTLCQFP [V4W],2.82

row,Variant,protein stability index
1,GERDVINISGLRFETQLKTLCQFP [V4D],1.88
2,GERMVINISGLRFETQLKTLCQFP [V4M],2.79
3,GERFVINISGLRFETQLKTLCQFP [V4F],3.43
4,GERVVINISGLSFETQLKTLCQFP [R12S],1.48
5,GERVVINISGLKFETQLKTLCQFP [R12K],2.5
6,GERVVINISGLDFETQLKTLCQFP [R12D],1.84
7,GERVVINISGLYFETQLKTLCQFP [R12Y],2.61
8,GERVVINISGLPFETQLKTLCQFP [R12P],1.45
9,GERVVINISGLWFETQLKTLCQFP [R12W],2.37
10,GERVVINISGLCFETQLKTLCQFP [R12C],2.46
11,GERVVINISGLQFETQLKTLCQFP [R12Q],2.21
12,GERVVINISGLLFETQLKTLCQFP [R12L],4.18
13,GERVVINISGLNFETQLKTLCQFP [R12N],2.85
14,GERVVINISGLRMETQLKTLCQFP [F13M],2.64
15,GERVVINISGLRTETQLKTLCQFP [F13T],1.56
16,GERVVINISGLREETQLKTLCQFP [F13E],2.14
17,GERVVINISGLRSETQLKTLCQFP [F13S],1.97
18,GERVVINISGLRGETQLKTLCQFP [F13G],2.14
19,GERVVINISGLRPETQLKTLCQFP [F13P],2.27
20,GERVVINISGLRAETQLKTLCQFP [F13A],1.45
21,GERVVINISGLRQETQLKTLCQFP [F13Q],1.87
22,GERVVINISGLRDETQLKTLCQFP [F13D],1.48
23,GERVVINISGLRLETQLKTLCQFP [F13L],1.06
24,GERVVINISGLRNETQLKTLCQFP [F13N],1.26

row,Variant,protein stability index
1,GERVVINISGLRCETQLKTLCQFP [F13C],2.83
2,GERVVINISGLRIETQLKTLCQFP [F13I],2.7
3,GERVVINISGLRKETQLKTLCQFP [F13K],1.67
4,GERVVINIPGLRFETQLKTLCQFP [S9P],1
5,GERVVINIGGLRFETQLKTLCQFP [S9G],1.04
6,GERVVINIVGLRFETQLKTLCQFP [S9V],1.83
7,GERVVINIDGLRFETQLKTLCQFP [S9D],1.51
8,GERVVINIAGLRFETQLKTLCQFP [S9A],1.29
9,GERVVINIEGLRFETQLKTLCQFP [S9E],3.59
10,GERVVINIFGLRFETQLKTLCQFP [S9F],2.47
11,GERVVINIQGLRFETQLKTLCQFP [S9Q],3.24
12,GERVVINILGLRFETQLKTLCQFP [S9L],2.27
13,GERVVINIKGLRFETQLKTLCQFP [S9K],2.4
14,GERVVINNSGLRFETQLKTLCQFP [I8N],2.53
15,GERVVINESGLRFETQLKTLCQFP [I8E],3.02
16,GERVVINASGLRFETQLKTLCQFP [I8A],1.67
17,GERVVINVSGLRFETQLKTLCQFP [I8V],1.28
18,GERVVINWSGLRFETQLKTLCQFP [I8W],1.76
19,GERVVINQSGLRFETQLKTLCQFP [I8Q],2.12
20,GERVVINHSGLRFETQLKTLCQFP [I8H],2.55
21,GERVVINGSGLRFETQLKTLCQFP [I8G],2.23
22,GERVVINTSGLRFETQLKTLCQFP [I8T],2.17
23,GERVVINDSGLRFETQLKTLCQFP [I8D],2.82
24,GERVVINCSGLRFETQLKTLCQFP [I8C],2.62

row,Variant,protein stability index
1,GERVVINYSGLRFETQLKTLCQFP [I8Y],2
2,GERVVINFSGLRFETQLKTLCQFP [I8F],2.85
3,GERVVINRSGLRFETQLKTLCQFP [I8R],1.83
4,GERVVINMSGLRFETQLKTLCQFP [I8M],1.65
5,GERVVINSSGLRFETQLKTLCQFP [I8S],1.86
6,GERVVINKSGLRFETQLKTLCQFP [I8K],1.97
7,GERVVINPSGLRFETQLKTLCQFP [I8P],3.11
8,WERVVINISGLRFETQLKTLCQFP [G1W],4.64
9,LERVVINISGLRFETQLKTLCQFP [G1L],2.66
10,DERVVINISGLRFETQLKTLCQFP [G1D],1.82
11,IERVVINISGLRFETQLKTLCQFP [G1I],3.44
12,MERVVINISGLRFETQLKTLCQFP [G1M],3.17
13,YERVVINISGLRFETQLKTLCQFP [G1Y],4.07
14,HERVVINISGLRFETQLKTLCQFP [G1H],2.1
15,TERVVINISGLRFETQLKTLCQFP [G1T],2.96
16,NERVVINISGLRFETQLKTLCQFP [G1N],2.16
17,CERVVINISGLRFETQLKTLCQFP [G1C],2.8
18,QERVVINISGLRFETQLKTLCQFP [G1Q],1.95
19,KERVVINISGLRFETQLKTLCQFP [G1K],2.52
20,RERVVINISGLRFETQLKTLCQFP [G1R],3.52
21,SERVVINISGLRFETQLKTLCQFP [G1S],3
22,GEGVVINISGLRFETQLKTLCQFP [R3G],1.85
